Among the data in article PMC8789516, “Polyphenol oxidase and enzymatic browning in apricot (Prunus armeniaca L.): Effect on phenolic composition and deduction of main substrates” (Current Research in Food Science, 2022) are Km, kcat and kcat/Km values, retold here.

Holding throughout (details): pH 7.0, 50 mM Tris-HCl, 25 °C, 2 mM SDS as activator of the latent enzyme
Data set [1] addresses T1, L-PaPPO (recombinant latent apricot polyphenol oxidase) (Prunus armeniaca, UniProt O81103, S149R/A376C/R416N/V417C).
T1 construct: gene PPO

Substrate in data set [2]: NCCc1ccc(O)cc1
Kind of data set: purified protein. It is filed as biochemical, Prunus armeniaca.

Substrate in data set [3]: NCCc1ccc(O)c(O)c1
Kind of data set: purified protein. It is filed as biochemical, Prunus armeniaca.

Regarding `O=C(/C=C/c1ccc(O)c(O)c1)O[C@@H]1C[C@@](O)(C(=O)O)C[C@@H](O)[C@@H]1O` [Neochlorogenic acid], the Km in data set [1] was 1470 ± 290 µM.

Turning to `O=C(/C=C/c1ccc(O)c(O)c1)O[C@@H]1C[C@](O)(C(=O)O)C[C@@H](O)[C@H]1O` [Chlorogenic acid], in data set [1], the Km is 1520 ± 100 µM.

B1: L-PaPPO (recombinant latent apricot polyphenol oxidase) (Prunus armeniaca; A376C/R416N/S149R/V417C) (protein)
chain: DPIAPPDLTTCKPAEITPGGSETVPCCPPVTTKIKTFKPDLSIPLRTRPAAHQVTDEYLAKFKKAQAAMRALPDDDPRSMVQQAKVHCAYCNGAYPQVGFTDNDIQVHFSWLFFPFHRMYLYFYERILGKLIDDPTFALPYWNWDSPVGFPIPDIYTDTSSPLYDQYRNADHQPPVLVDLSYGGKDDDVDEQTRIDENLAIMYRQMVSGAKTPDLFFGHAYRAGNLNTGKYPGTIENMPHNNIHIWVGDPSQTHQEDMGNFYSAGRDPLFYAHHCNVDRMWNIWKTLGGKRKDITDTDWLDAEFLFYDENAELVNCKVRDSLEPEKQLRYNYEPVSLPWLFTKPTARKTKNKTKAKVAATQLTSKFPATLVEVTTVEVARPKPRKRSKKEKVDEEELLIIKDIEFEGTEAVKFDVFINDDAESLSRRDKSEFAGSFVHVPQGKTTKAKTKTNLKLGITDLLEDLGAEDDSSVLVTLVPRVSNSPITIGGFKIEYSS
notes: latent form Asp102-Ser597 (active plus C-terminal domain), signal peptide removed; Gly-Pro-Met left after HRV 3C cleavage of GST; E. coli SHuffle T7; intron removed
Consider B1, for which, in “purified protein [2]”, the Michaelis-Menten constant (Km) came out at 4480 ± 360 µM, the kcat was 1.42 ± 0.13 s⁻¹ and the kcat/Km is 318 ± 29 M⁻¹ s⁻¹. Also, in “purified protein [3]”, the Km amounted to 1610 ± 160 µM, the kcat was found to be 162 ± 3.3 s⁻¹ and the specificity constant (kcat/Km) came out at 99800 ± 2900 M⁻¹ s⁻¹.
